According to US20160052996A1 (NEURIMMUNE, published 2016):
Where two headings read alike, the source gives them in different places.

Columns and labels:
[1] = target: T1, VP1 GCN (N74S R75K T128A L158V K345R Q350deletion T351deletion) (JC virus (JCV), UniProt P03089 1-354); test: flow cytometry, transfected 293TT cells
T1 construct: whole, on cells

JCV VP1 VLP [2] = target: T2, JCV VP1 VLP (JC virus (JCV), Mad-1 strain, UniProt P03089 1-354); test: direct ELISA, plate coated with antigen at 5 µg/ml in reassociation buffer (VLP); EC50 by non-linear regression (GraphPad Prism)
T2 construct: also called JCV VP1 VLPs; JCV VP1 (coating with reassociation buffer)

[3] = target: JCV (JC virus produced by infected SVG-A cells) (JC virus (JCV), UniProt P03089 1-354); test: cell-based or functional assay
JCV VP1 VLP [4] = target: T2, JCV VP1 VLP; test: direct ELISA, plate coated with antigen at 5 µg/ml in reassociation buffer (VLP); EC50 by non-linear regression (GraphPad Prism); remark: listed apart in the source
[5] = target: T3, JCV VP2 protein (Bioclone Inc) (JC virus (JCV), UniProt P03095 1-344); test: direct ELISA, antigens coated at 1 µg/mL; bar groups labelled 100 nM, 20 nM, 4 nM, 0.8 nM
T3 sequence (looked up): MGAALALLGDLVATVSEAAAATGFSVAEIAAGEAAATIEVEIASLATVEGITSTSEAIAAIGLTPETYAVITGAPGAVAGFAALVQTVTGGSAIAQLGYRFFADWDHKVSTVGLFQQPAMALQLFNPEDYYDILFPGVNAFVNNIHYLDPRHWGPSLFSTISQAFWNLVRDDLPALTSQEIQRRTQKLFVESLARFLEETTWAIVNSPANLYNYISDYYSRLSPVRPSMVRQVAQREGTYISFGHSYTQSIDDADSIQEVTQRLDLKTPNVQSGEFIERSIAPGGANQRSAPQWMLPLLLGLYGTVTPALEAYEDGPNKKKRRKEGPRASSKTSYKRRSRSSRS

[6] = target: T4, JCV VP3 protein (Bioclone Inc) (JC virus (JCV), UniProt P03095 120-344); test: as above
T4 sequence: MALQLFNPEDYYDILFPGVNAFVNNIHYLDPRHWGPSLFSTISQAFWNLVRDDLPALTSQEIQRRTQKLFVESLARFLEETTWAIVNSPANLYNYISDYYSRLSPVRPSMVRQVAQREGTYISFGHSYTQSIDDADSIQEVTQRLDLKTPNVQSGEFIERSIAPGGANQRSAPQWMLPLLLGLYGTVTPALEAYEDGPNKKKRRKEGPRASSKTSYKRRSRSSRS

BSA (Sigma-Aldrich) = target: T5, BSA (Sigma-Aldrich) (bovine, UniProt P02769 25-607); test: direct ELISA
T5 construct: also called bovine serum albumin
T5 sequence (P02769 25-607 limits assumed): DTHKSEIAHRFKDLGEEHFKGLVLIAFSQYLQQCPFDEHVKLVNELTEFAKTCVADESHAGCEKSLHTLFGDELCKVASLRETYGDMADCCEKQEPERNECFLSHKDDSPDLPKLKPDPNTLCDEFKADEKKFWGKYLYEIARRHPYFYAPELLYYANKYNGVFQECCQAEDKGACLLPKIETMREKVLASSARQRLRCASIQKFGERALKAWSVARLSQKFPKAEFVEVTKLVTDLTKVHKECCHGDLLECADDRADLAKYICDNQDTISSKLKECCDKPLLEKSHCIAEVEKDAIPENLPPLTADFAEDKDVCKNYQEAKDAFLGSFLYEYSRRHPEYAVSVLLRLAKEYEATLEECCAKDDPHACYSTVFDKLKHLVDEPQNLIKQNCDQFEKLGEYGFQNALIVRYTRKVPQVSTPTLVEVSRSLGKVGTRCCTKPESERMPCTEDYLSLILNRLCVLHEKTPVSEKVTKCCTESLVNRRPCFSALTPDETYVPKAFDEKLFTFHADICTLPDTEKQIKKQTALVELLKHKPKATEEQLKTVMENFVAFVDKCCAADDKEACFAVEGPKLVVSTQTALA

B1: NI-307.58C7 (antibody, V domains shown)
VH: EVQLVESGGGLVKPGGSLRLSCAASGFTFSDYYVNWIRQAPGKGLEWVACISSSGRTIHYADSVKGRFTISRDNAKNSLYLQMNSLRAEDTAFYYCARDLDKAATGRPYFDYWGQGTLVTVSS
VL: not shown
[1]
  binding result: binds

B2: NI-307.98D3 (antibody, V domains shown)
VH: EVQLVESGGGVVQPGRSLRLSCAASGFTFSSSAMHWVRQAPGKGLEWVAVISYDGNNQLYADSVKGRLTISRDNSKNALYLQLNSLRTEDTAVYFCARDGGGYSFGTYFFDFWGQGTLVTVSS
VL: DIQMTQSPSSLSASVGERVTITCRASQRISNYLNWYQQKPGKAPKLLIYAASTLQSGVPSRFSGSGSGTDFTLTISSLQPEDFATYYCQQSYSSPPTFGPGTKVDIK
JCV VP1 VLP [2]
  EC50: 0.00057 nM
[3]
  IC50 of neutralization of the JCV infection of SVG-A cells: 0.8 ng/mL

B3: NI-307.19F8 (antibody, V domains shown)
VH: EVQLVESGGGLVKPGGSLRLSCAASGFTFSSYYMNWVRQAPGKGLEWVSSISSSSSYIYYADSVKGRFTISRDNAKNSLYLQMNSLTAEDTAVYYCARDPRLQLWFMFDYWGQGTLVTVSS
VL: QPVLTQPPSASASLGASVTLTCTLSSGYSNYKVDWYQQRPGEGPRFVMRVGTGGIVGSKGDGIPDRFSVLGSGLNRYLTIKDIQEEDESDYHCGADHGSGSNFVYVFGTGTKVTVL
JCV VP1 VLP [4]
  EC50: 6.68 nM
[5]
  binding result: no binding (tested: 100 nM)
[6]
  binding result: no binding (tested: 100 nM)
BSA (Sigma-Aldrich)
  binding result: no binding
